Consider three molecules from paper PMC8877046, “Interferon-β Activity Is Affected by S100B Protein” (International Journal of Molecular Sciences, 2013).

Data set [1] addresses IFNAR2 ECD (Homo sapiens) (UniProt P48551). The note with it: cited from earlier work.
The target in data set [2] is T1, Human S100B protein (human), P04271.
T1 chain: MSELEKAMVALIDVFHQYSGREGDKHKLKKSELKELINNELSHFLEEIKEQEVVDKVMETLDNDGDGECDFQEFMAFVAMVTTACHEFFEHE
Description: SPR; S100B immobilised by amine coupling on ProteOn GLH chip (up to 9000 RU); analyte 10-80 nM IFN-β; 25 °C; 10 mM HEPES, 150 mM NaCl, 0.05% TWEEN 20, 1 mM CaCl2, pH 7.4; heterogeneous ligand model (two populations of ligand). The note with it: remark: other sources report otherwise.

Data set [3] deals with the molecule itself. Kind of data set: cross-linking; 5 µM IFN-β alone; 40 mM EDAC, 10 mM sulfo-NHS, 25 °C, 1.5 h; 10 mM HEPES, 150 mM NaCl, pH 7.4; SDS-PAGE, silver staining; whether CaCl2 was present is not told for this lane.
For data set [4], the target named is T2, Human interferon beta-1a (IFN-β, Rebif) (human), P01574.
T2 chain: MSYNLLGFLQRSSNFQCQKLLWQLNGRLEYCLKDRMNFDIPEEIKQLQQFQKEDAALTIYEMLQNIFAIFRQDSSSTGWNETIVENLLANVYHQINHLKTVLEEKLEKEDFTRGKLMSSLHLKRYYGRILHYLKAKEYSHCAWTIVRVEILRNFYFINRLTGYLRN
Description: other fluorescence titration; tryptophan fluorescence of 0.5 µM IFN-β (excitation 295 nm) titrated by S100B; 25 °C; 10 mM HEPES-NaOH, 150 mM NaCl, 1 mM CaCl2, pH 7.4; one-site binding model; apparent. The note with it: remark: other sources report otherwise.

Data set [5] deals with the molecule itself. Kind of data set: cross-linking; 5 µM IFN-β with 10 µM Ca2+-depleted S100B (1:2), and 10 µM apo-S100B alone; 40 mM EDAC, 10 mM sulfo-NHS, 25 °C, 1.5 h; 10 mM HEPES, 150 mM NaCl, pH 7.4, without CaCl2 and without chelator; authors say the samples could be contaminated by Ca2+.

Chain of IFNAR2 ECD (Homo sapiens) (P48551 27-243): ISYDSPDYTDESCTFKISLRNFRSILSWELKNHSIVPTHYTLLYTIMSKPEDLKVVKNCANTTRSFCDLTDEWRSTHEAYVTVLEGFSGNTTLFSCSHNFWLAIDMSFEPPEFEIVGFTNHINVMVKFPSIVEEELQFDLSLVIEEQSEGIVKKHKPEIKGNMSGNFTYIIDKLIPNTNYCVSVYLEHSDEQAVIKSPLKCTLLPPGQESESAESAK

Turning to IFN-β (from UniProt P01574), in data set [1], the Kd is 0.1 nM.

B1: Human interferon beta-1a (IFN-β, Rebif) (ligand, UniProt P01574 22-187, looked up)
chain: MSYNLLGFLQRSSNFQCQKLLWQLNGRLEYCLKDRMNFDIPEEIKQLQQFQKEDAALTIYEMLQNIFAIFRQDSSSTGWNETIVENLLANVYHQINHLKTVLEEKLEKEDFTRGKLMSSLHLKRYYGRILHYLKAKEYSHCAWTIVRVEILRNFYFINRLTGYLRN
notes: human interferon-β (interferon beta-1a), gene IFNB1, UniProt P01574; Drug product Rebif; also called Interferon-β; source: produced in CHO-K1 cells; bought: Merck (Rebif)
Turning to B1, in data set [2], the Kd1 (ligand population 1 of the heterogeneous ligand model) was determined as 47 pM; the Kd2 (ligand population 2 of the heterogeneous ligand model) stood at 87 nM; the kd1 (dissociation rate constant, ligand population 1 of the heterogeneous ligand model) is 0.000149 s⁻¹; the kd2 (dissociation rate constant, ligand population 2 of the heterogeneous ligand model) came to 0.013 s⁻¹. In addition, in data set [2], the t1/2 of dissociation (fast process) is 1.67 min and the t1/2 of dissociation (slow process) was > 16.7 min. Moreover, the binding result in data set [3] is “binds”.

B2: Human S100B protein (natural protein)
chain: MSELEKAMVALIDVFHQYSGREGDKHKLKKSELKELINNELSHFLEEIKEQEVVDKVMETLDNDGDGECDFQEFMAFVAMVTTACHEFFEHE
notes: human S100B, UniProt P04271; crystal structure of Ca2+-loaded human S100B dimer PDB 5D7F chains A and B; The authors take the S100B that was amine-coupled to the SPR chip to be partly converted to the monomer; also called apo-S100B; Ca^2+-loaded S100B
For B2, in data set [4], the Kd is 21 nM and the stoichiometry N (S100B to IFN-β molar ratio) was 1. Besides, the “stoichiometry N” value in data set [5] is 2.
